Earlier results, collected in publication PMC2757418.

Target: netrin-1 (UniProt O95631)

Kd: 10 nM
Substance: DCC (from UniProt P43146)
